This test addresses T1, SHP2PTP (the catalytic domain of SHP2) (Homo sapiens, UniProt Q06124).
T1 construct: purchased Abcam 42578 (SHP2 catalytic domain); 101112 (SAP)
T1 sequence (Q06124 247-517 limits assumed): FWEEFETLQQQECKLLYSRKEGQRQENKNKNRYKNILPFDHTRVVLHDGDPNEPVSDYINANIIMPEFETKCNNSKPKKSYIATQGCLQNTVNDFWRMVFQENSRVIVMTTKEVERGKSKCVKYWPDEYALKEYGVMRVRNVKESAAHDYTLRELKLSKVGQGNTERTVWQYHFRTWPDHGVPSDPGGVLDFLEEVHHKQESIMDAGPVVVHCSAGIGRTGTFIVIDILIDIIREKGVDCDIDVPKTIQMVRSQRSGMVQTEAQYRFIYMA
As to the kind of experiment: Co-affinity enrichment of His-tagged SAP and GST-tagged SHP2PTP. In kind it is binding. The following applies: recombinant proteins in the absence of T cell lysate. Here is the method:
FIG. 3. SAP is indirectly associated with PD-1. (ai) Pervanadate treated Jurkat T cells were transiently transfected with GFP-tagged PD-1 or GFP alone; Whole cell lysates (WCL) were immunoprecipitated with an anti-GFP antibody (IP: GFP), and samples were analyzed by immunoblotting. (aii) Densitometry values of data shown in ai. (b) Jurkat T cells were transfected with plasmids directing expression of the indicated fluorescent proteins and after 24 hours cells were stimulated with anti-CD3 antibodies and recombinant PDL2, followed by live-imaging. Bar, 10 μm. […] (di) Jurkat T cells were transfected with different versions of GFP-tagged PD-1, as indicated, followed by treatment with pervanadate; Whole-cell lysates (Input) were immunoprecipitated with an anti-GFP antibody (IP: GFP), and samples were analyzed by immunoblotting. […] (ei) 293T cells were transfected with plasmid directing expression of GFP-SAP or a control GFP plasmid, followed by treatment with pervanadate; Lysates were pulled-down with the GST-tagged PD-1 and samples were analyzed by immunoblotting. […] (gi) SHP2 KD and scrambled control Jurkat T cells were transfected with GFP-tagged PD-1, followed by treatment with pervanadate; Lysates were immunoprecipitated with an anti-GFP antibody (IP: GFP), and samples were analyzed by immunoblotting. […] Samples were analyzed by immunoblot. […]

B1: SAP: Recombinant human SAP (His tagged), signaling lymphocytic activation molecule-associated protein, purchased from Abcam (protein, UniProt O60880 1-128, looked up)
SH2 domain-containing protein …: MDAVAVYHGKISRETGEKLLLATGLDGSYLLRDSESVPGVYCLCVLYHGYIYTYRVSQTETGSWSAETAPGVHKRYFRKIKNLISAFQKPDQGIVIPLQYPVEKKSSARSTQGTTGIREDPDVCLKAP
modifications: His tag
Consider B1, for which the “direct interaction of SAP with SHP2 catalytic domain” value was “lack of direct interaction”.
